Measured values as given in article PMC11273223 (Glycobiology, 2024).

T1: TcCGT1 (Trollius chinensis, UniProt A0A4Y5RXX8)
T1 sequence (A0A4Y5RXX8 2-483): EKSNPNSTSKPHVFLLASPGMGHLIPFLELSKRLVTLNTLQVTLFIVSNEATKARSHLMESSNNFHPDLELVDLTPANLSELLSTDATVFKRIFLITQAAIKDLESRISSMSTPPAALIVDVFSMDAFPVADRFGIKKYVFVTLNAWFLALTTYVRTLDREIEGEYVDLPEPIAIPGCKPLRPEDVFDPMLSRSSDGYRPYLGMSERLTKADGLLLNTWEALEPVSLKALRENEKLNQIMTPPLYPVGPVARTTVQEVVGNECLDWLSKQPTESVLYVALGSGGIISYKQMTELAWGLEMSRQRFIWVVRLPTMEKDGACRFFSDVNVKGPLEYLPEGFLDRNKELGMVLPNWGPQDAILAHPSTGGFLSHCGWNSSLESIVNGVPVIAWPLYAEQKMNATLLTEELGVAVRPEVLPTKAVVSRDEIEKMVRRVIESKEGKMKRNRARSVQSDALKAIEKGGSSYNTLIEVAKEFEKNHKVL

B1: UGT71C1 (Arabidopsis thaliana) (protein)
chain: GKQEDAELVIIPFPFSGHILATIELAKRLISQDNPRIHTITILYWGLPFIPQADTIAFLRSLVKNEPRIRLVTLPEVQDPPPMELFVEFAESYILEYVKKMVPIIREALSTLLSSRDESGSVRVAGLVLDFFCVPMIDVGNEFNLPSYIFLTCSAGFLGMMKYLPERHREIKSEFNRSFNEELNLIPGYVNSVPTKVLPSGLFMKETYEPWVELAERFPEAKGILVNSYTALEPNGFKYFDRCPDNYPTIYPIGPILCSNDRPNLDSSERDRIITWLDDQPESSVVFLCFGSLKNLSATQINEIAQALEIVDCKFIWSFRTNPKEYASPYEALPHGFMDRVMDQGIVCGWAPQVEILAHKAVGGFVSHCGWNSILESLGFGVPIATWPMYAEQQLNAFTMVKELGLALEMRLDYVSEDGDIVKADEIAGTVRSLMDGVDVPKSKVKEIAEAGKEAVDGGSSFLAVKRFIGDLIDGVSISK

Tests used:
TcCGT1 = target: T1, TcCGT1; assay: HPLC end-point turnover to O- and C-glucosides; format: biochemical; settings: 50 μM aloesone, 200 μM UDP-Glc, 50 mM HEPES, pH 7.4, 30 °C, overnight
[1] = substrate: CC(=O)Cc1cc(=O)c2c(C)cc(O)cc2o1; assay: HPLC initial rates of O-glucoside formation, Michaelis-Menten fit; format: biochemical, Arabidopsis thaliana; settings: 0.8 mM UDP-Glc, 50 mM HEPES, 50 mM NaCl, pH 7.4

Row | Molecule | HPLC end-point turnover to O- and C-glucosides (TcCGT1) | Km [1] [µM] | kcat [1] [s⁻¹] | kcat/Km [1] [M⁻¹ s⁻¹]
1 | CC(=O)Cc1cc(=O)c2c(C)cc(O)cc2o1 [aloesone, 2-acetonyl-7-hydroxy-5-methylchromone] | both C-and O-glucosides were detected in the reaction with TcCGT1 | – | – | –
2 | B1 | – | 50.54 ± 7.29 | 0.27 ± 0.01 | 5000
